Patent US20250011363A1, “OPTIMIZED SHORTENED PEPTIDE THAT BINDS TO ACETYLCHOLINE RECEPTOR, AND USE THEREOF” (SKINMED CO., LTD., priority 2021, published 2025)

What follows are substances tested against acetylcholine receptor (Homo sapiens, UniProt P02708) (assay: SPR binding affinity (RU) of optimized 5mer/6mer/7mer peptides, Examples 6-7). Conditions: SPR, Resonance Units; 5mer Bottom sequence (bottom combinations); peptides tested at 10 μM.
Chain of acetylcholine receptor (P02708 21-457): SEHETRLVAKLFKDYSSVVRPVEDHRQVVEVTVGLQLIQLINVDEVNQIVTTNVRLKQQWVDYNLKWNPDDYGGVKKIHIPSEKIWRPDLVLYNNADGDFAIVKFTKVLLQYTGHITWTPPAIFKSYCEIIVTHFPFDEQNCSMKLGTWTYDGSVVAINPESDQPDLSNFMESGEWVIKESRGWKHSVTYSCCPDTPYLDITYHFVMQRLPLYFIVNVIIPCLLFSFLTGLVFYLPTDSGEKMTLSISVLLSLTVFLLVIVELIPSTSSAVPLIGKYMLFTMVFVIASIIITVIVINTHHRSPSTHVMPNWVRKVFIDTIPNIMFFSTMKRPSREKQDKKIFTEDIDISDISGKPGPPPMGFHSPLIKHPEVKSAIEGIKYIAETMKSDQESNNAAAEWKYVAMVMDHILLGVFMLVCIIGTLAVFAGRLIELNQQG
Protocol: Based on the frequencies of occurrence of the top 7 amino acids from Table 7 in Example 5, 600 peptides comprising these amino acids (top combinations) and those comprising the 13 less frequently occurring amino acids (bottom combinations) were synthesized for each series of 5mer, 6mer-1, and 6mer-2. The binding affinity of each sequence for the acetylcholine receptor was measured using Surface Plasmon Resonance (SPR) analysis method. The peptides were tested at a concentration of 10 μM. Additionally, the average binding affinities of the top and bottom combinations in each series are depicted in FIGS. 5-7.
Representative peptides identified in Example 6, two in each library, including 5mers (73, 311) and 6mers-1 (43, 210) and 6mers-2 (136, 233), were compared with the pre-optimized 6mer, 5mer-ND, and Synake.
5mer-601 (RFCFK) was tested, and the Binding affinity was 13 Ru.
5mer-602 (KMSVR) was tested, and the Binding affinity was 12 Ru.
With 5mer-603 (RKEPK) the Binding affinity was 27 Ru.
With 5mer-604 (RKEGK) the Binding affinity was 13 Ru.
With 5mer-605 (RECFK) the Binding affinity was 22 Ru.
5mer-606 (RIHWK) gave a Binding affinity of 25 Ru.
Substance 5mer-607 (RIEER) has a Binding affinity of 25 Ru.
5mer-608 (RDSER) showed a Binding affinity of 20 Ru.
With 5mer-609 (RKTMK) the Binding affinity was 32 Ru.
Substance 5mer-610 (KCDDK) has a Binding affinity of 16 Ru.
5mer-611 (KDHIR) was tested, and the Binding affinity was 33 Ru.
Work on 5mer-612 (KCTDK) yielded a Binding affinity of 23 Ru.
5mer-613 (RAEFR) was tested, and the Binding affinity was 20 Ru.
5mer-614 (RNTWK) showed a Binding affinity of 29 Ru.
5mer-615 (KCCNR) was tested, and the Binding affinity was 20 Ru.
5mer-616 (KFCPR) showed a Binding affinity of 15 Ru.
With 5mer-617 (RYCAK) the Binding affinity was 28 Ru.
5mer-618 (RMSWK) was tested, and the Binding affinity was 19 Ru.
5mer-619 (KCSFK) gave a Binding affinity of 19 Ru.
With 5mer-620 (RCMHK) the Binding affinity was 23 Ru.
For 5mer-621 (KKSMK), the Binding affinity was 13 Ru.
5mer-622 (RKPKR) was tested, and the Binding affinity was 22 Ru.
Substance 5mer-623 (KNTGR) has a Binding affinity of 19 Ru.
5mer-624 (KEHER) gave a Binding affinity of 22 Ru.
Substance 5mer-625 (KMCDR) has a Binding affinity of 33 Ru.
5mer-626 (KICMR) was tested, and the Binding affinity was 12 Ru.
Work on 5mer-627 (KMSPK) yielded a Binding affinity of 30 Ru.
5mer-628 (RYMDR) showed a Binding affinity of 19 Ru.
5mer-629 (RPTNK) gave a Binding affinity of 32 Ru.
With 5mer-630 (RITFR) the Binding affinity was 30 Ru.
5mer-631 (RPANR) gave a Binding affinity of 17 Ru.
5mer-632 (RFSHR) gave a Binding affinity of 33 Ru.
Work on 5mer-633 (RAAKR) yielded a Binding affinity of 20 Ru.
For 5mer-634 (RMMMR), the Binding affinity was 26 Ru.
5mer-635 (RMNGR) showed a Binding affinity of 21 Ru.
5mer-636 (KDKGR) showed a Binding affinity of 11 Ru.
In the case of 5mer-637 (KCDHK), the Binding affinity is reported as 28 Ru.
5mer-638 (KHCIR) showed a Binding affinity of 33 Ru.
5mer-639 (KETWK) showed a Binding affinity of 13 Ru.
With 5mer-640 (KNPHK) the Binding affinity was 15 Ru.
Work on 5mer-641 (RITWK) yielded a Binding affinity of 22 Ru.
5mer-642 (RAWDR) gave a Binding affinity of 22 Ru.
Work on 5mer-643 (KHDGR) yielded a Binding affinity of 28 Ru.
For 5mer-644 (RMKWK), the Binding affinity was 24 Ru.
In the case of 5mer-645 (RHKDK), the Binding affinity is reported as 20 Ru.
With 5mer-646 (KDTKR) the Binding affinity was 16 Ru.
Substance 5mer-647 (KHTVK) has a Binding affinity of 29 Ru.
5mer-648 (KNKKR) was tested, and the Binding affinity was 15 Ru.
Substance 5mer-649 (RYSFK) has a Binding affinity of 20 Ru.
Work on 5mer-650 (RPEDK) yielded a Binding affinity of 22 Ru.
For 5mer-651 (RFTVR), the Binding affinity was 11 Ru.
With 5mer-652 (RCAAR) the Binding affinity was 23 Ru.
Substance 5mer-653 (KTTWK) has a Binding affinity of 16 Ru.
Work on 5mer-654 (KEWNR) yielded a Binding affinity of 27 Ru.
Work on 5mer-655 (RKCIR) yielded a Binding affinity of 15 Ru.
With 5mer-656 (KATGR) the Binding affinity was 13 Ru.
Substance 5mer-657 (KDNDR) has a Binding affinity of 22 Ru.
5mer-658 (KKWGR) was tested, and the Binding affinity was 31 Ru.
Substance 5mer-659 (KIHEK) has a Binding affinity of 22 Ru.
For 5mer-660 (KFDVK), the Binding affinity was 11 Ru.
5mer-661 (RCNMK) was tested, and the Binding affinity was 30 Ru.
Substance 5mer-662 (KIEEK) has a Binding affinity of 28 Ru.
Substance 5mer-663 (RATPR) has a Binding affinity of 31 Ru.
For 5mer-664 (KPTWR), the Binding affinity was 17 Ru.
For 5mer-665 (KTWEK), the Binding affinity was 26 Ru.
Substance 5mer-666 (RHDWR) has a Binding affinity of 18 Ru.
5mer-667 (RDCHR) was tested, and the Binding affinity was 16 Ru.

Same assay, conditions: SPR, peptides tested at 10 μM; 5mer Top sequence
With 5mer-501 (KLQRK) the Binding affinity was 78 Ru.
5mer-502 (RRISR) showed a Binding affinity of 84 Ru.
Work on 5mer-503 (KRVSK) yielded a Binding affinity of 61 Ru.
5mer-504 (KQIQR) showed a Binding affinity of 72 Ru.
In the case of 5mer-505 (RQIYR), the Binding affinity is reported as 71 Ru.
In the case of 5mer-506 (RGRLR), the Binding affinity is reported as 51 Ru.
With 5mer-507 (KWVQK) the Binding affinity was 84 Ru.
5mer-508 (KGLQK) was tested, and the Binding affinity was 67 Ru.
Work on 5mer-509 (RVQRK) yielded a Binding affinity of 61 Ru.
5mer-510 (RQLSK) gave a Binding affinity of 71 Ru.
5mer-511 (KSLSR) gave a Binding affinity of 56 Ru.

Same assay, conditions: SPR, peptides tested at 10 μM; 5mer Top sequence (top combinations)
5mer-512 (RLYLK) was tested, and the Binding affinity was 70 Ru.
Substance 5mer-513 (RWYYK) has a Binding affinity of 83 Ru.
For 5mer-514 (KLLLK), the Binding affinity was 52 Ru.
5mer-515 (RGQRK) was tested, and the Binding affinity was 56 Ru.
Work on 5mer-516 (KWQTR) yielded a Binding affinity of 83 Ru.
5mer-517 (KGYTR) gave a Binding affinity of 70 Ru.
For 5mer-518 (RVYYR), the Binding affinity was 87 Ru.
5mer-519 (RLYSK) showed a Binding affinity of 72 Ru.
5mer-520 (RVLLK) was tested, and the Binding affinity was 86 Ru.
5mer-521 (KRFRK) showed a Binding affinity of 78 Ru.
For 5mer-522 (RLVYR), the Binding affinity was 78 Ru.
5mer-523 (KQFQK) gave a Binding affinity of 84 Ru.
5mer-524 (RRICR) showed a Binding affinity of 83 Ru.
Work on 5mer-525 (KQRYK) yielded a Binding affinity of 51 Ru.
Work on 5mer-526 (KQFSR) yielded a Binding affinity of 54 Ru.
In the case of 5mer-527 (KSVQR), the Binding affinity is reported as 70 Ru.
5mer-528 (RVLLR) gave a Binding affinity of 50 Ru.
With 5mer-529 (RVQSR) the Binding affinity was 84 Ru.
In the case of 5mer-530 (RWRRR), the Binding affinity is reported as 80 Ru.
Work on 5mer-531 (KRQSR) yielded a Binding affinity of 65 Ru.
With 5mer-532 (KQICK) the Binding affinity was 75 Ru.
5mer-533 (RLVYK) was tested, and the Binding affinity was 84 Ru.
Work on 5mer-534 (RRQLR) yielded a Binding affinity of 50 Ru.
5mer-535 (KSLLR) showed a Binding affinity of 70 Ru.
5mer-536 (RLITK) was tested, and the Binding affinity was 78 Ru.
Work on 5mer-537 (RLRLR) yielded a Binding affinity of 59 Ru.
5mer-538 (KQQQR) gave a Binding affinity of 72 Ru.
5mer-539 (RVVTR) showed a Binding affinity of 70 Ru.
5mer-540 (RQFYR) gave a Binding affinity of 74 Ru.
With 5mer-541 (KVFLK) the Binding affinity was 80 Ru.
5mer-542 (KRYTR) was tested, and the Binding affinity was 85 Ru.
In the case of 5mer-543 (RLRLK), the Binding affinity is reported as 65 Ru.
5mer-544 (RLQLR) showed a Binding affinity of 63 Ru.
5mer-545 (KGQYR) showed a Binding affinity of 80 Ru.
With 5mer-546 (KVVLK) the Binding affinity was 65 Ru.
5mer-547 (KQVTK) was tested, and the Binding affinity was 77 Ru.
With 5mer-548 (KWLCK) the Binding affinity was 60 Ru.
5mer-549 (KWITK) showed a Binding affinity of 78 Ru.
In the case of 5mer-550 (RQQSR), the Binding affinity is reported as 83 Ru.
For 5mer-551 (RWQYR), the Binding affinity was 59 Ru.
In the case of 5mer-552 (RLYSR), the Binding affinity is reported as 63 Ru.
5mer-553 (KLLSR) showed a Binding affinity of 72 Ru.
Substance 5mer-554 (RLLSK) has a Binding affinity of 65 Ru.
Substance 5mer-555 (KVQCK) has a Binding affinity of 71 Ru.
For 5mer-556 (RVIYK), the Binding affinity was 52 Ru.
5mer-557 (KQRRK) was tested, and the Binding affinity was 87 Ru.
For 5mer-558 (RWRYK), the Binding affinity was 84 Ru.
With 5mer-559 (KQQLK) the Binding affinity was 81 Ru.
Work on 5mer-560 (KWYQR) yielded a Binding affinity of 59 Ru.
Work on 5mer-561 (KWRCK) yielded a Binding affinity of 72 Ru.
In the case of 5mer-562 (RVRQR), the Binding affinity is reported as 70 Ru.
5mer-563 (RLVLK) showed a Binding affinity of 60 Ru.
5mer-564 (RSRYR) showed a Binding affinity of 74 Ru.
With 5mer-565 (RLVSK) the Binding affinity was 77 Ru.
For 5mer-566 (KQLYK), the Binding affinity was 78 Ru.
Substance 5mer-567 (RRYCK) has a Binding affinity of 63 Ru.
Substance 5mer-568 (KQITR) has a Binding affinity of 64 Ru.
5mer-569 (RQQRK) was tested, and the Binding affinity was 79 Ru.
With 5mer-570 (KLVRR) the Binding affinity was 56 Ru.
Substance 5mer-571 (RRLTK) has a Binding affinity of 51 Ru.
In the case of 5mer-572 (KLRTK), the Binding affinity is reported as 58 Ru.
Work on 5mer-573 (RSIYR) yielded a Binding affinity of 84 Ru.
In the case of 5mer-574 (KGFTR), the Binding affinity is reported as 59 Ru.
Work on 5mer-575 (KGFYR) yielded a Binding affinity of 69 Ru.
5mer-576 (RLFRK) gave a Binding affinity of 62 Ru.
Work on 5mer-577 (KLVTK) yielded a Binding affinity of 77 Ru.
5mer-578 (KSVLR) gave a Binding affinity of 65 Ru.
Substance 5mer-579 (RSLYK) has a Binding affinity of 53 Ru.
Work on 5mer-580 (RGYTR) yielded a Binding affinity of 70 Ru.
Work on 5mer-581 (KGVLR) yielded a Binding affinity of 65 Ru.
For 5mer-582 (RGICK), the Binding affinity was 82 Ru.
For 5mer-583 (KVVYR), the Binding affinity was 75 Ru.
5mer-584 (KQIQK) gave a Binding affinity of 76 Ru.
Substance 5mer-585 (RSVSK) has a Binding affinity of 74 Ru.
For 5mer-586 (KGRRR), the Binding affinity was 78 Ru.
Substance 5mer-587 (RVITR) has a Binding affinity of 66 Ru.
With 5mer-588 (RSFTR) the Binding affinity was 60 Ru.
5mer-589 (KGLCR) showed a Binding affinity of 58 Ru.
Work on 5mer-590 (KQYTK) yielded a Binding affinity of 81 Ru.
5mer-591 (RVYTK) gave a Binding affinity of 61 Ru.
In the case of 5mer-592 (RWLCR), the Binding affinity is reported as 56 Ru.
For 5mer-593 (KQYLK), the Binding affinity was 77 Ru.
Substance 5mer-594 (KQYSR) has a Binding affinity of 50 Ru.
5mer-595 (KWQQR) was tested, and the Binding affinity was 58 Ru.
In the case of 5mer-596 (KLQQR), the Binding affinity is reported as 56 Ru.
For 5mer-597 (KLVSR), the Binding affinity was 68 Ru.
In the case of 5mer-598 (RVRSK), the Binding affinity is reported as 84 Ru.
5mer-599 (KWVSR) showed a Binding affinity of 61 Ru.
5mer-600 (KLYSK) gave a Binding affinity of 64 Ru.
